Reference: publication PMC2987445 (Cancer biology & therapy, 2010)

Experiments:
[1] = test system: Akt signaling (pAkt, S6 protein, 4EBP-1) in LNCaP and T47D cells; assay: Western blot of Akt pathway phosphorylation in LNCaP and T47D cells; settings: 3 hrs
Akt1 = Akt1 (Mus musculus, UniProt P31750); assay: Ex vivo IP-kinase assay of Akt1 in mouse tissues; settings: exogenous insulin ip
Akt3 = Akt3 (Mus musculus, UniProt Q9WUA6); assay: Ex vivo IP-kinase assay of Akt3 in mouse tissues; settings: exogenous insulin ip (1 or 5 μg)
[2] = Blood glucose in nude mice; assay type: in vivo, mouse; settings: 40 μg insulin ip in animals treated with 100 mpk AKTi
[3] = Plasma insulin in nude mice; settings: 30 min after injection; for plasma insulin levels increase: no AKTi

Chain of Akt3 (Q9WUA6 whole entry): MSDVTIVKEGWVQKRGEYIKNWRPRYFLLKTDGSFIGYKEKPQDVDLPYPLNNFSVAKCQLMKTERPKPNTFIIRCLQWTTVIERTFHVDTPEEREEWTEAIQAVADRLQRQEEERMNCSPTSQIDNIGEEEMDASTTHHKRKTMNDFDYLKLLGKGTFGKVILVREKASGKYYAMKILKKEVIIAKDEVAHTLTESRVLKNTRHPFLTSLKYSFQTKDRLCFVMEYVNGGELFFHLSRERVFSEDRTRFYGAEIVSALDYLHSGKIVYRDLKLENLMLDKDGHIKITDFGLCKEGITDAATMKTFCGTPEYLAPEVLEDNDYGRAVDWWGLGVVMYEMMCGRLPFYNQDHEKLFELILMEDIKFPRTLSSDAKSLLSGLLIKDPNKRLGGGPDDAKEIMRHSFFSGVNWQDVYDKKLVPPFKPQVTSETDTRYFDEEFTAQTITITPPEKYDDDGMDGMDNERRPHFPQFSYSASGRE
Chain of Akt1 (P31750 whole entry): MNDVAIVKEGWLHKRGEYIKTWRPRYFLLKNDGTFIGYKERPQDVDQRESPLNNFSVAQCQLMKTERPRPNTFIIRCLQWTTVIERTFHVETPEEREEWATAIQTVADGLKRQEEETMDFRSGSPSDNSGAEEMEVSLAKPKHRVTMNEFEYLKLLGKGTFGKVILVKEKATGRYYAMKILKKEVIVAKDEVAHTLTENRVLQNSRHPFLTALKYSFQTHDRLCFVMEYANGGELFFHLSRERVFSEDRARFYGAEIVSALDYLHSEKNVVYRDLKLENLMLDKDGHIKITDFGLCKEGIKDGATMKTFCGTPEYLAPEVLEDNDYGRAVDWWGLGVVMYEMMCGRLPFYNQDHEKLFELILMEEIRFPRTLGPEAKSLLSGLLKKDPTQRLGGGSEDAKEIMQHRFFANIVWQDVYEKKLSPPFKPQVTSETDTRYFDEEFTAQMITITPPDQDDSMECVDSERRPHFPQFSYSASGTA

Molecule | blocking phosphorylation of S6 protein and 4EBP-1 [1] | hyper-phosphorylation of Akt [1] | induction of Akt1 activity in liver (Akt1) | maximal increase of Akt3 activity in lung (Akt3) | effect on glucose levels [2] | plasma insulin levels increase ([3]; 1 μg insulin ip) | plasma insulin levels increase ([3]; 5 μg insulin ip) | Insulin, plasma ([3]; insulin 5.0 μg per mouse ip)
Cc1n[nH]c2ccc(-c3cncc(OC[C@@H](N)Cc4c[nH]c5ccccc45)c3)cc12 [A443654] | equally effective at blocking phosphorylation | feed-back hyper-phosphorylation |  |  |  |  |  | 
Insulin: Recombinant insulin obtained from Invitrogen, injected intraperitoneally |  |  | ~10 fold | 40% | only a minor effect on glucose levels | about 20 fold | ~100 fold | 77 ± 21 ng/mL
